This note sets out measurements from the supplement of paper PMC6379048.

pKd: −log10 of the molar value.

Test in all cases: Kd (EC50 corrected by depletion factor)
One data set has as its target T1, CMTR1 (UniProt Q8N1G2).
T1 sequence: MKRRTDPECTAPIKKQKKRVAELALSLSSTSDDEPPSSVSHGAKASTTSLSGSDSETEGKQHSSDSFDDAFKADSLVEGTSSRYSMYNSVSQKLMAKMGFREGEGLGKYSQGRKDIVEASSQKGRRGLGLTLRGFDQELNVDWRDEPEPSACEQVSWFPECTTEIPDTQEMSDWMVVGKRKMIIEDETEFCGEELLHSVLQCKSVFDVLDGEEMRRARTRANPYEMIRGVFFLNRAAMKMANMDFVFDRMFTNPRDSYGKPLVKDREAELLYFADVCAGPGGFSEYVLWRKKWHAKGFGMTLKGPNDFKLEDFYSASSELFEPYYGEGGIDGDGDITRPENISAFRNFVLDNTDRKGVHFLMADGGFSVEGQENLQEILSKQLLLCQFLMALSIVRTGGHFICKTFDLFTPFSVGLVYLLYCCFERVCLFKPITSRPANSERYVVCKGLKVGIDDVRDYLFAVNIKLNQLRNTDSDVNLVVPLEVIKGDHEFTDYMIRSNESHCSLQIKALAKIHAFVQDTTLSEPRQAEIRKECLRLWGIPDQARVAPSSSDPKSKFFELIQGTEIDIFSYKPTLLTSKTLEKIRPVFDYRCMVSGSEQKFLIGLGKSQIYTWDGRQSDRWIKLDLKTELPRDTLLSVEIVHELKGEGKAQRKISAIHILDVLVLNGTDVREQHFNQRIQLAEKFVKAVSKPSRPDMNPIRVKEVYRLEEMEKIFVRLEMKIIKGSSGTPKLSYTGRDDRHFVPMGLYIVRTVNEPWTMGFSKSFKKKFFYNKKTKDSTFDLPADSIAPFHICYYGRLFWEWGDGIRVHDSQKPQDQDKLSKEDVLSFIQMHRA
The method, boiled down:
(§1)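 Free RNA oligos (0 nM to 30 μM) were pre-incubated with HEK293-FT lysate (2.5 mg protein/well) for 1 h at 4°C, followed by 30 min at 4°C with the same 5′-amino-C6 oligos coupled to NHS-Sepharose beads. Bound proteins were quantified by label-free LC-MS/MS and normalised to the control. EC50 was derived from a four-parameter log-logistic fit, and Kd was obtained by multiplying EC50 by a protein-dependent depletion factor.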

In the next data set the target is RPS20 (UniProt P60866). The method in brief: as §1
The next data set deals with T2, RBM7 (UniProt Q9Y580).
T2 sequence: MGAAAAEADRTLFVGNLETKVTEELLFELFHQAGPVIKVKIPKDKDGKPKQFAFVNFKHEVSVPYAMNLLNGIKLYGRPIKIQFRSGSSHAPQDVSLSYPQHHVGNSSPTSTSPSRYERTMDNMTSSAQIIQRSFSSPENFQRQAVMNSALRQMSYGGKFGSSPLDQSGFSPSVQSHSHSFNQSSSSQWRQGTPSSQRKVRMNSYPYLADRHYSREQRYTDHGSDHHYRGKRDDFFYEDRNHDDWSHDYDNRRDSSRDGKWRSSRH
The method, boiled down:
as §1

The target of a further data set is T3, GPATCH3 (UniProt Q96I76).
T3 sequence: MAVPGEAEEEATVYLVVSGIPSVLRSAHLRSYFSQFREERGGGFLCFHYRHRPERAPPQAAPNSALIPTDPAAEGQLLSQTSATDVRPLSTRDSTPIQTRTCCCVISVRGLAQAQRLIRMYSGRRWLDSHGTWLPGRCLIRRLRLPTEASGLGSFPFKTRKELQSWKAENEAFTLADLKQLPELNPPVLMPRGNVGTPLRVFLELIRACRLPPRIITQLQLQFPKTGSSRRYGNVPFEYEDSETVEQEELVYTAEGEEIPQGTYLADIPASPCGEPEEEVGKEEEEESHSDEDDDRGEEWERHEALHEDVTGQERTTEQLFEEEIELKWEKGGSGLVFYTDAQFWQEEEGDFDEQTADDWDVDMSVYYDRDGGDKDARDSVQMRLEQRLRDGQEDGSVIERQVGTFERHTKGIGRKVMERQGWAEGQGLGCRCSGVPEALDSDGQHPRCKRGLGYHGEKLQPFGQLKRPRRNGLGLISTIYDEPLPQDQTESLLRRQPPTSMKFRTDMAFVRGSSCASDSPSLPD
The method, boiled down: as §1

The target in the next data set is T4, RBMS3 (UniProt Q6XE24).
T4 sequence: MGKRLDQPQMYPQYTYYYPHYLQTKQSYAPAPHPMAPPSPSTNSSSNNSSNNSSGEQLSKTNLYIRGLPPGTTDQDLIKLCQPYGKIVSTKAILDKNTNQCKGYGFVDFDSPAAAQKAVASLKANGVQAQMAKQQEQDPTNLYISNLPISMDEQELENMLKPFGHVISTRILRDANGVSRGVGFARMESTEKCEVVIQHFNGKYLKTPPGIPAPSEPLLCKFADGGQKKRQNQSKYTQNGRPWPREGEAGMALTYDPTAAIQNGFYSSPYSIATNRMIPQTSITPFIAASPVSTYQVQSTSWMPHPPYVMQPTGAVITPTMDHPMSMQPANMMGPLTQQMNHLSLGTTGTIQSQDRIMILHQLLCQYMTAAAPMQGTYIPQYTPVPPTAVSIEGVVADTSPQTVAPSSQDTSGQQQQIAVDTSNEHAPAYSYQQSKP
The method in brief: as §1

The target in another data set is SRSF9 (UniProt Q13242). The method, boiled down: as §1
SRSF9, sequence (Q13242 whole entry): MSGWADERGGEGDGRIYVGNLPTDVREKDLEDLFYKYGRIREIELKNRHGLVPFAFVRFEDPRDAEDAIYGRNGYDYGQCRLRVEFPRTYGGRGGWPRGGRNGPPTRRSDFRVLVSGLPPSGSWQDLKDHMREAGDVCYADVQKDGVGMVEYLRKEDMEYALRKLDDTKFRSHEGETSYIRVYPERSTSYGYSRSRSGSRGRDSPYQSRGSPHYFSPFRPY
A further data set addresses NCL (UniProt P19338). The method, boiled down: as §1

NCL, sequence (P19338 whole entry): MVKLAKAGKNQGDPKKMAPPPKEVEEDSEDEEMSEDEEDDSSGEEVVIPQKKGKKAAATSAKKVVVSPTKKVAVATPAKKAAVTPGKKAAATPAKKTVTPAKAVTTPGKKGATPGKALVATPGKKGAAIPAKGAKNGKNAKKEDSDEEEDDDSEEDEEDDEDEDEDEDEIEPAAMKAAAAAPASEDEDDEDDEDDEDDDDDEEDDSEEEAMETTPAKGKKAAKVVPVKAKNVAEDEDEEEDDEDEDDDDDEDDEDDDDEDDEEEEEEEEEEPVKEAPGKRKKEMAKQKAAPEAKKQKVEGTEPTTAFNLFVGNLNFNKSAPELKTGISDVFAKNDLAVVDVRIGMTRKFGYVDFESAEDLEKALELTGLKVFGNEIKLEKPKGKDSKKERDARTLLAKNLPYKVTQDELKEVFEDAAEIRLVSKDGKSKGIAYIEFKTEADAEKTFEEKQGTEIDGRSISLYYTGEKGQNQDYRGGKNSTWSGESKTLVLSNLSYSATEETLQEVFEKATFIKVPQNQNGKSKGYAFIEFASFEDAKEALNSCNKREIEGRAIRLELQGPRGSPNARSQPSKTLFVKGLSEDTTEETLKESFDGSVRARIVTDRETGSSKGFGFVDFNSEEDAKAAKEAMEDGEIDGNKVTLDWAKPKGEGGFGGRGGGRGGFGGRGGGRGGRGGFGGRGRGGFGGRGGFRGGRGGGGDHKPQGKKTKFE

By pKd is commonly meant the Kd on a negative log10 scale, so that one unit is a factor of ten. Higher therefore signals a small Kd. AAUAAA: the pKd was 6.68 in the data set with CMTR1; 5.64 with RPS20; 6.81 with RBM7; 6.71 in the data set with GPATCH3; 6.82 with RBMS3.
As for CUGUCCU, the pKd was 5.65 in the data set with SRSF9, 7.22 with RPS20 and 7.06 with NCL.
Take UAUUUAU: the pKd in the data set with SRSF9 is 5.23; with CMTR1, 6.23; with RBM7 it was 7.09; in the data set with GPATCH3, 6.61; with RBMS3 it was 7.01; with NCL it was 5.75.
